We go through two proteins from paper PMC8565327, “A dominant-negative SOX18 mutant disrupts multiple regulatory layers essential to transcription factor activity” (Nucleic Acids Research, 2021).

One data set addresses T1, SOX7-eGFP, Q9BT81.
T1 chain: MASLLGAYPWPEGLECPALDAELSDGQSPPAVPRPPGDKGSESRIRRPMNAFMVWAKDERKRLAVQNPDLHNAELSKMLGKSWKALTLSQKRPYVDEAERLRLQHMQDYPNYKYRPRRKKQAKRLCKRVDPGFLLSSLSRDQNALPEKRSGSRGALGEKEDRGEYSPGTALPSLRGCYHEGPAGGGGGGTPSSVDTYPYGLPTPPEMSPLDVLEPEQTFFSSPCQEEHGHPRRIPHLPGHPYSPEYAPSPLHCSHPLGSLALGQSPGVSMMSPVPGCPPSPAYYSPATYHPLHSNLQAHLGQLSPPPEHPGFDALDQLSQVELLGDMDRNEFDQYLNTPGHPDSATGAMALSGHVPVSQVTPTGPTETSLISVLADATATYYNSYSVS
The experiment in a line: cross-raster image correlation spectroscopy (cRICS); living HeLa cell nuclei, 37°C, transiently transfected; two colours (JF549 + JF646 on HaloTag, eGFP + JF646, or snap646 + JF549); fraction of molecules that move together. Conditions: other: cross-raster image correlation spectroscopy (cRICS).

Data set [1] deals with the molecule itself. Kind of data set: number and brightness (N&B); living HeLa cell nuclei, 37°C; cells with low to medium expression, 1 μM JF549 Halo-tag dye; monomer brightness calibrated on HALO-SOX7.

B1: HALO-SOX18 (protein)
chain: MQRSPPGYGAQDDPPSRRDCAWAPGIGAAAEARGLPVTNVSPTSPASPSSLPRSPPRSPESGRYGFGRGERQTADELRIRRPMNAFMVWAKDERKRLAQQNPDLHNAVLSKMLGKAWKELNTAEKRPFVEEAERLRVQHLRDHPNYKYRPRRKKQARKVRRLEPGLLLPGLVQPSAPPEAFAAASGSARSFRELPTLGAEFDGLGLPTPERSPLDGLEPGEASFFPPPLAPEDCALRAFRAPYAPELARDPSFCYGAPLAEALRTAPPAAPLAGLYYGTLGTPGPFPNPLSPPPESPSLEGTEQLEPTADLWADVDLTEFDQYLNCSRTRPDATTLPYHVALAKLGPRAMSCPEESSLISALSDASSAVYYSACISG
For the protein B1, the percent heterodimer result with SOX7-eGFP, Q9BT81 was “SOX7/SOX18 (18.5%)”.

B2: HALO-SOX18 (natural protein, UniProt P43680 1-377, looked up)
chain: B1 chain
modifications: JF549 and/or JF646 Halo-tag dye on the HaloTag
notes: SOX18 wild type from the plasmid pReceiver-M49(HaloTag-SOX18) of GeneCopoeia; In the functional row with MEF2C the protein was untagged-SOX18 from the same plasmid without the HaloTag; also called HaloTag-SOX18; pReceiver-M49(HaloTag-SOX18); source: HeLa, transiently transfected, in living cells
One may read the stoichiometry N as a count of units in the complex or per binding partner. Consider B2, for which, in data set [1], the “stoichiometry N” value worked out at 2.
